# B1: MB1-T58A peptide (peptide)
# peptide: APSEDIWKKFELLPAPPLSP
# B2: MYC-MB1 (WT) peptide (peptide)
# peptide: APSEDIWKKFELLPTPPLSP
# B3: MB1-T58D peptide (peptide)
# peptide: APSEDIWKKFELLPDPPLSP
# Columns and labels:
# [1] = target: T1, GFP-POLD1 (human, UniProt P28340 1-1107); assay: MST
# T1 chain: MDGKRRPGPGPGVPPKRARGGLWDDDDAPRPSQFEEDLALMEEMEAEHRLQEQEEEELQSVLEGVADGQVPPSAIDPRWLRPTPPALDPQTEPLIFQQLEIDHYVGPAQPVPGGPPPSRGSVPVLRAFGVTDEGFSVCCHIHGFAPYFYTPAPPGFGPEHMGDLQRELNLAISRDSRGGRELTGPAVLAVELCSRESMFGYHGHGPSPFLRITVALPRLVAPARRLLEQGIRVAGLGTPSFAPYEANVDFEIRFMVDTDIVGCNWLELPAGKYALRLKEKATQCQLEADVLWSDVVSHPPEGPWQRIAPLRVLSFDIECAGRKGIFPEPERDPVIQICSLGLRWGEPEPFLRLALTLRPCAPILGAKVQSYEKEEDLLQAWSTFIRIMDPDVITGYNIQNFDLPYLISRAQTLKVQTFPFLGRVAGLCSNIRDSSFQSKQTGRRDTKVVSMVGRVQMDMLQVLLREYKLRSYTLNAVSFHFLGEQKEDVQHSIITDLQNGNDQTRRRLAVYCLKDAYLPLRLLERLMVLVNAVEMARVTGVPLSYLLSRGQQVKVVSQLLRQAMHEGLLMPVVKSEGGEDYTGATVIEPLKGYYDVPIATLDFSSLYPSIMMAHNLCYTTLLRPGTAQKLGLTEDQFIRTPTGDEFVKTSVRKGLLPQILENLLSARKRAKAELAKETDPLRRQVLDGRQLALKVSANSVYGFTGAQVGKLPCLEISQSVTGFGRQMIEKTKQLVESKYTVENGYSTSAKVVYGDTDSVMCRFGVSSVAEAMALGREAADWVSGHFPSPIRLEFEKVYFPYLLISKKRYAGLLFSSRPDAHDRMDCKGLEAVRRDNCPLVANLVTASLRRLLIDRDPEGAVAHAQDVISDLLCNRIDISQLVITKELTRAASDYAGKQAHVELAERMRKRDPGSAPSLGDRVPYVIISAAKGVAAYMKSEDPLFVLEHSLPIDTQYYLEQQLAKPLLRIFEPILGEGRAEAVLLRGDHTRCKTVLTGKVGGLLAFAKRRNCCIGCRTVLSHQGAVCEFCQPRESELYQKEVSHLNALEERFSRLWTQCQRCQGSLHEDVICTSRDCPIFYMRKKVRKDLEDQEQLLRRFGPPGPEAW
# [2] = target: GFP-FBXW7α (human, UniProt Q969H0 1-707); assay: MST
# Chain of GFP-FBXW7α (Q969H0 whole entry): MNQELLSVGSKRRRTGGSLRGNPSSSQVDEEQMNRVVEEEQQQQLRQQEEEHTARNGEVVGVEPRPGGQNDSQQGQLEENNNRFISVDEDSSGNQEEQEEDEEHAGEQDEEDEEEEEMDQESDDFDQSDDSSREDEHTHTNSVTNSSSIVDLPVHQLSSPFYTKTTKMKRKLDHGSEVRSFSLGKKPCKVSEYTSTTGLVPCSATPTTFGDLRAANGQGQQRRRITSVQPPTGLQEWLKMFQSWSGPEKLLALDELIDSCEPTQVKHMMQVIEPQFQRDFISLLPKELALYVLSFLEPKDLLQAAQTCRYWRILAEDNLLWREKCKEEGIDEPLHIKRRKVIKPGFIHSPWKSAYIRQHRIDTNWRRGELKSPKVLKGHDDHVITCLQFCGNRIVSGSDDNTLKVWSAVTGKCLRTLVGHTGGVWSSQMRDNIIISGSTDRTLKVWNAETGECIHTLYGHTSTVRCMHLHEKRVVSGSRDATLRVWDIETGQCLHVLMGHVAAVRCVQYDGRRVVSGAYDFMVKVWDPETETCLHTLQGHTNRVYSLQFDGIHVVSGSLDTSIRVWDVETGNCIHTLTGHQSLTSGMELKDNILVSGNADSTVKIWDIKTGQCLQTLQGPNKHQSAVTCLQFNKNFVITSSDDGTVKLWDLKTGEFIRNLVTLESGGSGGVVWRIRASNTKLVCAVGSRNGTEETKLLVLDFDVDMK
Kd [1] [µM],Kd [2] [µM],Binder
49.9,2160,B1
34.5,700,B2
30.8,110,B3
